In patent US6750057 (UNIVERSITY OF FLORIDA, dated 2004):

Biological target: Native MBP (UniProt P0AEX9 27-392 = MBP)
Test: in vitro pull-down on amylose resin, SDS-PAGE and autoradiography
Description: The ^35S-labeled XA21 kinase was then incubated with resin-bound MBP or MBP fusion proteins (1 ug) in the binding buffer [20 mM Hepes (pH 7.4), 1 mM EDTA, 5 mM MgCl_2, 1 mM DTT, 0.1% Triton X-100, 1 mg/ml BSA, 1× complete protease inhibitors (Roche Diagnostics)] for 120 min at 4° C. with gentle shaking. After washing with the washing buffer [20 mM Hepes (pH 7.4), 1 mM EDTA, 5 mM MgCl_2, 1 mM DTT, 0.1% Triton X-100] five times, the bound proteins were eluted with the washing buffer supplemented with 10 mM maltose and resolved by 8% SDS-PAGE according to Laemmli. Laemmli, Nature 227, 680 (1970). The gel was stained with Coomassie brilliant blue R-250, dried, and exposed to X-ray film.

B1: 35S-labeled XA21 kinase (enzyme)
chain: HKRTKKGAPSRTSMKGHPLVSYSQLVKATDGFAPTNLLGSGSFGSVYKGKLNIQDHVAVKVLKLENPKALKSFTAECEALRNMRHRNLVKIVTICSSIDNRGNDFKAIVYDFMPNGSLEDWIHPETNDQADQRHLNLHRRVTILLDVACALDYLHRHGPEPVVHCDIKSSNVLLDSDMVAHVGDFGLARILVDGTSLIQQSTSSMGFIGTIGYAAPEYGVGLIASTHGDIYSYGILVLEIVTGKRPTDSTFRPDLGLRQYVELGLHGRVTDVVDTKLILDSENWLNSTNNSPCRRITECIVWLLRLGLSCSQELPSSRTPTGDIIDELNAIKQNLSGLFPVCEGGSLEF
modifications: 35S-methionine labelled by in vitro transcription/translation. The label does not change the letters.
notes: Made with the TnT kit from a pET-28a construct; also called XA21 protein labeled with 35S; not shown: Vector-encoded N-terminal leader of pET-28a (His/T7 tag and the few residues from the BamHI/SalI primer sites)
B1: no binding (tested: 1 ug resin-bound protein).
